# Source: the nanobody polyreactivity screen of Harvey et al. (2022)
# Test: yeast display, Sf9 membrane polyspecificity reagent, FACS + sequencing; frameworks hold sequencing errors
# Summary of the method: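 Using colony PCR, genes from sorted yeast display clones were amplified, then sequenced on MiSeq at 2 × 250 and filtered by CDR length. The clones had been stained with 10% biotinylated, detergent-solubilized Sf9 membrane reagent for 1 hour at 4 °C and sorted by FACS into low and high (top ~1%) gates on anti-HA and streptavidin fluorescence. Polyreactivity labels come from the gate of origin.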
row,Sequence,polyreactivity (PSR sort gate)
1,QVQLVESGGGLDQAGGSLRLSCAASGLTFRYYAMGWYRQAPGKERELVAGISGRGGSTYYADSVKGRFTISRDNAKNTVYLQMNSLKPEDTAVYYCAADYSYGRFRRFDYWGQGTQVNVSS,high polyreactivity
2,QVQLVESGGGLDQAGGSLRLSCAASGLTFYTYAMGWYRQAPGTERELVAAIRWRGGRTYYADSVKGRFTISRDNAKNTVYLQMNSLKPEDTAVYYCAADYSTLYKYDYWGQGTQVTVSS,low polyreactivity
3,QVQLVESGGGLDQAGGSLRLSCAASGLTSLGNAMGWYRQAPGKERELVAAITRTGTSTYYADSVKGRFTISRDNAKNTVYLQMNSLKPEDTAVYYCNADGQSQYRYGSQYRYDYWGQGTQVTVSS,low polyreactivity
4,QVQLVESGGGLDQAGGSLRLSCAASGNIFVEYAMGWYSQAPGKERELVAAITNSGGRTHYADSVKGRFTISRDNAKNTGSLQMNSRKPEDTAVFYCAAPTKYRSRRYYWGQGTQVSVSS,high polyreactivity
5,QVQLVESGGGLDQAGGSLRLSCAASGNTFFWPNAMGWYRQAPGKERELFAGISYRGASTYYADSVKGRFTISRDNAKNTVYLQMNSLKPEDTAVYYCAADNTPRGRRQNRDMYYWGQGTQVTVSS,high polyreactivity
6,QVQLVESGGGLDQAGGSLRLSCAASGRIFNVYAMGWYRQAPGKERELVASITSAGSTYYADSVKGRFTISRDNAKNTVYIKMNSLKPEDTAVYYCAADCYSVYYSTYDSWGQGTQVTVSS,low polyreactivity
7,QVQLVESGGGLDQAGGSLRLSCAASGRIFVFYTMAWYRQAPGKERDLVAAITKSGGSTYYADSVKGRFTISRDNAKNTVYFQMNSLKPEDTAVYYCATRDSPRTKNGYYYWGQGTQVTVSS,high polyreactivity
8,QVQLVESGGGLDQAGGSLRLSCAASGRTFAYYTMGWYRQAPGKERELVAAITSSGGSTYYADSVKGRFTISRDNAKNTVYLQMKSLKPEDTAVYYCNAYGLRWASRLGYDYWGQGTQVTVSS,high polyreactivity
9,QVQLVESGGGLDQAGGSLRLSCAASGRTFGRNAMGWYRQAPGKESELVAASSTRGGSTFYADSVKARFTISRDNAKNTVYLQMNSLKPEDTAVYYCAAAGTARWPRPTSGLLDYYYWGQVTQVTVSS,high polyreactivity
10,QVQLVESGGGLDQAGGSLRLSCAASGRTFIAYARGWYRQAPGKERELVAAITSSGGSTNYADSVKGRFTISRDNAKNTVYLQMNSLKPEDTAVYYSATDIYECPYFYYSYYYWGQGTQVTVSS,low polyreactivity
11,QVQLVESGGGLDQAGGSLRLSCAASGRTFIGYAMGWYRQAPGKVRELVAAFNWSGARTYYADSVKGRFTISRDNAKNTVYLQMNSLKPEDTAVYYCAAVPVTSQTKYGYWGQGTQVTVSS,high polyreactivity
12,QVQLVESGGGLDQAGGSLRLSCAASGRTFRHYAMGWYRQAPGKERELVASIRWNGASTNYADSVKGRFTISRDNAKNTVYLQMNSLKPEDTAVYYCAARFGSGFNYWGQGTQVTVSS,high polyreactivity
13,QVQLVESGGGLDQAGGSLRLSCAASGRTFYYYAMGWYRQAPGIERELVAAISWSGGNTYYADSVKGRFTISRDNAKNTVYLQMNSLKPEDTAVYYCNRAYRTLTARTGRYDYWGQGTQVTVSS,high polyreactivity
14,QVQLVESGGGLDQAGGSLRLSCAASGRTINGNTMGCYRQAPGKQRELVAVIDWSGGSTYYADSVKGRFTISRDNAKNTVYLQMNSLKPEDTAVYYCNAETRDPILYGEYDYWGQGTQVTVSS,low polyreactivity
15,QVQLVESGGGLDQAGGSLRLSCAASGSIFASNAMGWYRQAPGKERELVAAINSGDSTNYADSVKGRFTISRDNAKNTVYLQMNSLKPEDTAVYYCARGLEERYDYWGQGTQVTVSS,low polyreactivity
16,QVQLVESGGGLDQAGGSLRLSCAASGSIFDYYAMGWYRQAPGKERELVARISYSGGTTYYADSVKGRFTISRDNAKNTVYLQMNSLKPEDTAVYYCNARIPYSWRYGYWGQGTQVTVSS,high polyreactivity
17,QVQLVESGGGLDQAGGSLRLSCAASGSIFESYAMGWYRQAPGKERELVAAITKRGGSTYYADSVKGRFTISRDNAKNTVYLQMNRLKPEDTAVYYCNASWPGIGPIYDYWGQGTQVTVSS,low polyreactivity
18,QVQLVESGGGLDQAGGSLRLSCAASGSIFGSYTLGGYRQAPGKERELVAVINWSGDRTYYADSVKGRFTISRDNAKNTVYLQMNSLKPEDTAVYYCAARERAAYSRIRYNYWGQGTQVTVSS,high polyreactivity
19,QVQLVESGGGLDQAGGSLRLSCAASGSIFNDNVMGWYRQAPWKERELVAGISRSGTRTYYADSVKGRFTISRDNAKNTVYLQMNSLKPEDTAVYYCAAAYGQARRYNGSQYGSWGQGTQVTVSS,high polyreactivity
20,QVQLVESGGGLDQAGGSLRLSCAASGSIFPPYAMGWYSQAPGKERELVATITIRGGSTYYADSVKGRFTISRDNAKNTVYLQMNSLKPEDTAVYYCAADYTKYYRRYYYWGQGTQVTVSS,high polyreactivity
21,QVQLVESGGGLDQAGGSLRLSCAASGSIFYAYAMGWYRQAPGKEREFVAVISRGGITNYADSVKGRFTISRDNAKNTVYLELNSLKPEDTAVYYCAAGTSAWGYLRRYGYWGQGSQVTVSS,low polyreactivity
22,QVQLVESGGGLDQAGGSLRLSCAASGSIFYDNTMAWYRQAAGKERDLVADISSGDSTYYADSVKGRFTISRDNAKNTVYLQMNSLKPEDTAVYYCNADVYSWVSVKEGDYWGQGTEVTVSS,low polyreactivity

row,Sequence,polyreactivity (PSR sort gate)
1,QVQLVESGGGLDQAGGSLRLSCAASGSIFYFYTMGWYRQAPGKEREFVAAINGIGGSTYYADSVKGRFTISRDNAKNTVYLQMNRLKPEDTAVYYCAADAPWFKRNARKYNYWGQGTQVTVSS,low polyreactivity
2,QVQLVESGGGLDQAGGSLRLSCAASGSIFYPYAMRWYRQAPGKERELVAAISSGGGTNYADSVKGRFTISRDNAKNTVYLQMNSLKPEDTEVYYCNARTGTTWQGYEYDYWGQGTQVTVSS,low polyreactivity
3,QVQLVESGGGLDQAGGSLRLSCAASGSILDSYTMGWYRQAPGKERELVPAITSDGGSTYYADSVKGRFTISRDNAKNTVYLQMNSLKPEDTAVYYCAKLSRYYGFWYTPDFDYWGQGTQVTVSS,high polyreactivity
4,QVQLVESGGGLDQAGGSLRLSCAASGSILPYYAMGWYRQAPGKERELVATITDGTDTYYADSVKGRFTFSRDNAKNTVYLQMNSLKQEDTAVYYCDRKQYWGYDYWGQGTQVTVSS,low polyreactivity
5,QVQLVESGGGLDQAGGSLRLSCAASGSISQVYAMGWYRQATGKERELVAVINDADDTSYADSVKGRFTISRDNAKNTVYLQMNSLKPEDTAVYYCAAESSYFVALTQFYTVEFYYWGQGTQLTVSS,low polyreactivity
6,QVQLVESGGGLDQAGGSLRLSCAASGSTFANNAMGWYREAPGKERELVAAISSGGSTNYADSVKGRFTISRDNAKNTGYLQMNSLKPEDTAVYYCNADAYDEIKYGYWGQGTQVTVSS,low polyreactivity
7,QVQLVESGGGLDQAGGSLRLSCAASGSTFQAYARGWYRQAPGKERELVAAISRRSGSTYYADSVKGRFTISRDNAKNTVYLQMNSLKPEDTAVYYCNAGSRRPYDYWGQGTQVTVSS,low polyreactivity
8,QVQLVESGGGLDQAGGSLRLSCAASGSTFQPYAMGRYRQAPGKEREFVATISGSAGSTYYADSVKGRFKISRDNANYTVYLQMNSLKPEDTAVYYCNADSGWFGYDYWGQGNQVTVSS,low polyreactivity
9,QVQLVESGGGLDQAGGSLRLSCAASGSTFRWYAMGWYRQAPGKERELVAAISSSGGSTYYADSVKGRFTISRDNAKNTVYLQMNSLKPEDTAVYYCAADFTGPFDYWGQGTQVTVSS,high polyreactivity
10,QVQLVESGGGLDQAGGSLRLSCAASGSTFSFYAMGWYRQAPGKERELVAAISRSGGCKFYADYVKGRFSISRDNEKNTVYLQMNRLKPEDTAVYYCAAKSAVVVGMDSWGQGTQVTVSS,high polyreactivity
11,QVQLVESGGGLDQAGGSLRLSCAASGSTFSYNAKGWYRQAPGKERELVAAITYRGSSTYYADSVKGRFTSSRDNAKNTVDLQMNSLKPEDTAVYYCAVSYVRYRGSGLTAFNYWGQGTQVTVSS,high polyreactivity
12,QVQLVESGGGLDQAGGSLRLSCAASGSTFVANAMGWYRQAPGKERELVAAITYRGGSTYYADSVKGRFTISRDNAKNSVYLQMNSLKPEDTAVYYCNTVYYVASASYYWRYDYWGQGTQVTVSS,high polyreactivity
13,QVQLVESGGGLDQAGGSLRLSCAASGSTFVFYAMVWYIQAPGKEREFVAAITNSGSNTYYADSVKGRFTISRDNAKMTVNLQMNSLKPEDTAVYYCAARPFGRYRGRYYYWGQGTQVTVSS,high polyreactivity
14,QVQLVESGGGLDQAGGSLRLSCAASGSTFVGYAMGWYRQAPGKERELVAAISGSGTSTYYADSVKGRFTISRDNAKNTVYLQMNSLKPEDTAVYYCNADPIFVYSSYNYWGQGTQVTVSS,low polyreactivity
15,QVQLVESGGGLDQAGGSLRLSCAASGSTFVLNAMGWYRQAPGKERDLVAAITSNGGRTYYADSVKGRFTISRDNAKNTVYLQMNSLKPEDTAVYYCNAVKTHRVRVHGWDYGYWGQGTQVTVSS,high polyreactivity
16,QVQLVESGGGLDQAGGSLRLSCAASGSTFVSNAMGWYRQAPGKERELVAAISKSGGSTYYADSVKGRFTISRDNAKNTVYLQMNSLKPEDTAVYYCAKYNAKSFYGQYDYWGQGTQVTVSS,high polyreactivity
17,QVQLVESGGGLDQAGGSLRLSCAASGSTFYKYAMGWYRQAPGNERDLVAGISSSGGNTYYADSVKGRFTISRDNAKNTDYLQMNSLKPEDTAVYYCAARPRYLKEYDYWGQGTQVSVSS,high polyreactivity
18,QVQLVESGGGLDQAGGSLRLSCAASGSTIHYYAMGWYRQAPRKERELVAVISSGGSTYYADSVKGRFTISRDNAKNTVYLQMNSLNPEDTAVYYCAKDYRDYNRGWYDYWGQGTQVTVSS,low polyreactivity
19,QVQLVESGGGLDQAGGSLRLSCAASGSTSPYYTMGWYRQAPGKERELVASINESGGSTYYADSVKGRFTISRDNAKNTVYLLMNSLKPEDTAVYYCNAEYTTPSYPVYRIDYYWFDYWGQGTQVTVSS,low polyreactivity
20,QVQLVESGGGLDQAGGSLRLSCAASVFIFAYYAMGWYRQAPGKERELVAAITRHGGSTYDADSVKGRFTISRDNAQNTVYLQMNSLKPEETAVYYCNAYFGWSASRQSYDYWGQGTQVTVSS,high polyreactivity
21,QVQLVESGGGLDQAGGSLRLSCAASVSTFDAYAMVWSTQAPGQERELVAAISSSAASTSYADSVKGRFTISRDNAKNTVYVQMNSLKPEDTAFYYCAARPYRRPWYRGRYYYWGQGTQVTVSS,high polyreactivity
